Consider three molecules from patent publication US20130058960A1 (Genentech, published 2013).

The chains are these.
B1: anti-TAT425 monoclonal antibody 13H2.28.2 (antibody, V domains shown)
VH: QVQLQQPGAELVRPGASVKLSCKASGYSFTSYWMNWVRQRPGQGLEWIGMIHPSDSETRLNQKFKDKATLTVDKSSSTAYMQLSSPTSDDSAVYFCTREAITAVHFWGHGTTLTVSS
VL: QAVVTQESALTTSPGETVTLTCRSSTGAVTTSNYANWVQEKPDHLFTGLIGGTNNRAPGVPARFSGSLIGDKAALTITGAQTEDEAIYFCALWYSNHWVFGGGTKLTVLG
B2: anti-TAT425 monoclonal antibody 14E7.17.1 (antibody, V domains shown)
VH: QVQLKESGPGLVAPSQSLSITCTVSGFSLTTYGVSWVRQPPGKGLEWLGLIWGDGSINYHSALISRLSISKDNSKSQVFLKLNSLQTDDTATYYCAKGWGGLYVMDYWGQGTSVTVAS
VL: DIQMTQSPASLSASVGETVTITCRSSENIYSYLAWYQQKLGKSPQLLVYNAKTLAEGVPSRFSGSGSGTQFSLKIYSLQSADFGSYYCQHHFGSPPTFGGGTKLESKR
B3: anti-TAT425 monoclonal antibody 2E4.6.1 (antibody, V domains shown)
VH: EVQLQQSGAELVKPGASVKLSCTTSGFNIKDYYMQWVKQRTGQGLEWIGRIDPEDGETKNAPKFQGKATITADTSSNTAYLQLSSLTSEDTAVYFCAREGYYGNGYAMDYWGQGTSVTVSS
VL: DVLMTQTPLSLPVSLGDQASISCRSSQSIVHSNGNTYLDWYLQKPGQSPKLLIYKVSNRFSGVPDRFSGSGSGTDFTLKISRVEAEDLGVYYCFQGSHVPWTFGGGTKLEIKR

For the assay, the target named is T1, TAT425 polypeptide (Homo sapiens (Human), UniProt O15439 1-1325).
T1 construct: no signal peptide or domain limits are stated; also called TAT425 protein; polypeptide encoded by DNA340411
T1 sequence: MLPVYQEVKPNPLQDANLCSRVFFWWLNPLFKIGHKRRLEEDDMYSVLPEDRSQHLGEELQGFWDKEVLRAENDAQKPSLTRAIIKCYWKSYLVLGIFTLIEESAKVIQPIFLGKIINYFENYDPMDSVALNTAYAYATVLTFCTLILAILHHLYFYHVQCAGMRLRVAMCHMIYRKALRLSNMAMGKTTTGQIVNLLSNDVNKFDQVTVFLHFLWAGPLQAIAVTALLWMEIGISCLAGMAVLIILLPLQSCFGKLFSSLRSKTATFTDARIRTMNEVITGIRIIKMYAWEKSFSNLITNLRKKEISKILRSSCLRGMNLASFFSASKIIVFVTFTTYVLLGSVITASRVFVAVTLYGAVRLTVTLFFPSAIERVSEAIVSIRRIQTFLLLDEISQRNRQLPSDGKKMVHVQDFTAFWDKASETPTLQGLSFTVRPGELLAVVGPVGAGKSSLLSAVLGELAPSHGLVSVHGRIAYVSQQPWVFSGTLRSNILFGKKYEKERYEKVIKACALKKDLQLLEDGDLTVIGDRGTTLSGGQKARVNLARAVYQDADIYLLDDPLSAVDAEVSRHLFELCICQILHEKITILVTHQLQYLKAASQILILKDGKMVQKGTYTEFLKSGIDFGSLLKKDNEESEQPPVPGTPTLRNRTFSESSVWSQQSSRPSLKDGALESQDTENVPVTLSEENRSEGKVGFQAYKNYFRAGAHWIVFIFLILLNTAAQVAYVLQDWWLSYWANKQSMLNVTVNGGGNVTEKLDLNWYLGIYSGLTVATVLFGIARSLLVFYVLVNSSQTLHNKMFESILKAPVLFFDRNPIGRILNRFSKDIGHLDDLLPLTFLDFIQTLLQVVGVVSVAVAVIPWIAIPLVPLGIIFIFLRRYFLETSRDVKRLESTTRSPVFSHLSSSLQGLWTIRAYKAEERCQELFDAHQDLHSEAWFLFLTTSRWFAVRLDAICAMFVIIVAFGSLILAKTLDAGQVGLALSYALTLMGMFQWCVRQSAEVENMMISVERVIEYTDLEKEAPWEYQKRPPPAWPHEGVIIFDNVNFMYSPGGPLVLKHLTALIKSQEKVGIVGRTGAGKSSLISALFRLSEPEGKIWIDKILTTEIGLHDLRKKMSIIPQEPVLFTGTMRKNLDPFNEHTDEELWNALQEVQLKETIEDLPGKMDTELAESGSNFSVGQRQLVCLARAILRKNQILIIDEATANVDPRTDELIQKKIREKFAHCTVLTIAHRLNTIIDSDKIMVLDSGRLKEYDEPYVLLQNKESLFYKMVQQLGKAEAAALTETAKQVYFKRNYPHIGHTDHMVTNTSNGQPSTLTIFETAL
The experiment in a line: Western blot, ELISA, FACS and/or immunohistochemistry on cells expressing TAT425. Background: Immunoblotting shows a protein as a band on a membrane.
Regarding B1, the binding result was “binds”.

For B2, the binding result is given as “binds”.

For B3, the binding result is given as “binds”.
